These results are taken from PMC9375587 (2022).

For the assay, the target named is Thrombin (Homo sapiens, UniProt P00734). In words: solid-phase binding assay.

B1: Myeloperoxidase (protein)
chain: not shown
The molecule B1 returned a Kd of 101 nM.
